# Molecular target: the molecule itself
# Assay: SEC; Superdex 200 increase 10/300 GL, buffer A (50 mM triethanolamine hydrochloride, 1 mM MgCl2, pH 7.0), 0.75 mL/min; apparent native mass from a calibration curve with carbonic anhydrase, bovine serum albumin, alcohol dehydrogenase and beta-amylase; affinity-purified protein loaded
protein,measurement,value
"NADPH-dependent alcohol dehydrogenase of Lactobacillus brevis, wild type (LbADH^WT), with N-terminal Strep-tag II (enzyme, UniProt Q84EX5 1-252, looked up, NADPH-dependent (R-specific) alcohol dehydrogenase of Lactobacillus brevis; 251 amino acid residues and 26.6 kDa per subunit as printed; calculated mass of the monomer with StrepTag-II 28.2 kDa; The plasmid pASK-IBA5plus-Lbadh^WT was a gift (Prof. W. Kroutil); not shown: Strep-tag II, N-terminal, kept) MSNRLDGKVAIITGGTLGIGLAIATKFVEEGAKVMITGRHSDVGEKAAKSVGTPDQIQFFQHDSSDEDGWTKLFDATEKAFGPVSTLVNNAGIAVNKSVEETTTAEWRKLLAVNLDGVFFGTRLGIQRMKNKGLGASIINMSSIEGFVGDPSLGAYNASKGAVRIMSKSAALDCALKDYDVRVNTVHPGYIKTPLVDDLPGAEEAMSQRTKTPMGHIGEPNDIAYICVYLASNESKFATGSEFVVDGGYTAQ",stoichiometry N,4

# From paper PMC6969876, “NADPH biosensor-based identification of an alcohol dehydrogenase variant with improved catalytic properties caused by a single charge reversal at the protein surface” (AMB Express, 2020)
